Assay in all cases: purified protein
What all share (type): biochemical, Homo sapiens
Conditions in all cases: 1 mM NAD+, 150 mM sodium pyrophosphate pH 7.5, 30 °C

Substrate in data set [1]: N=C(N)NCCCC=O
Substrate in data set [2]: NCCC=O
Substrate in data set [3]: NCCCC=O
Substrate in data set [4]: C[N+](C)(C)CCCC=O
Substrate in data set [5]: O=CCc1ccc(O)c(O)c1

B1: human ALDH9A1 (HsALDH9A1) (Homo sapiens) (protein)
chain: MSTGTFVVSQPLNYRGGARVEPADASGTEKAFEPATGRVIATFTCSGEKEVNLAVQNAKAAFKIWSQKSGMERCRILLEAARIIREREDEIATMECINNGKSIFEARLDIDISWQCLEYYAGLAASMAGEHIQLPGGSFGYTRREPLGVCVGIGAWNYPFQIASWKSAPALACGNAMVFKPSPFTPVSALLLAEIYSEAGVPPGLFNVVQGGAATGQFLCQHPDVAKVSFTGSVPTGMKIMEMSAKGIKPVTLELGGKSPLIIFSDCDMNNAVKGALMANFLTQGQVCCNGTRVFVQKEILDKFTEEVVKQTQRIKIGDPLLEDTRMGPLINRPHLERVLGFVKVAKEQGAKVLCGGDIYVPEDPKLKDGYYMRPCVLTNCRDDMTCVKEEIFGPVMSILSFDTEAEVLERANDTTFGLAAGVFTRDIQRAHRVVAELQAGTCFINNYNVSPVELPFGGYKKSGFGRENGRVTIEYYSQLKTVCVEMGDVESAF
notes: full-length 494-residue protein, His-tag kept (pCDFDuet, BamHI/XhoI), recombinant from E. coli; silent polymorphism at Ile110 codon
As to B1, the Km turned out to be 21 ± 2 µM in data set [1]; 56 ± 7 µM in data set [2]; 67 ± 7 µM in data set [3]; 6 ± 1 µM in data set [4]; 11 ± 1 µM in data set [5]. Also, the Vmax in data set [1] stood at 0.114 µmol/min/mg; in data set [2], 0.108 µmol/min/mg; in data set [3] it was 0.108 µmol/min/mg; in data set [4], 0.588 µmol/min/mg; in data set [5], 0.03 µmol/min/mg.

These data come from article PMC6487263, “Kinetic and structural analysis of human ALDH9A1” (Bioscience Reports, 2019).
